The source of these data is PMC5381515 (Structure (London, England : 1993), 2017).

One may read the stoichiometry N as the number of molecules, sites or subunits per partner or assembly.

The target in series [1] is truncated human βB2-crystallin (14–194) (human). As to the kind of experiment: SEC-MALS. (In general: Size exclusion chromatography separates by hydrodynamic size, large species first.)
Series [2] deals with the molecule itself. As to the kind of experiment: SEC-MALS.

With “truncated human βB2-crystallin (14–194) (domain or fragment)”, in series [1], the stoichiometry N amounted to 2.

B1: full-length human βB2-crystallin (natural protein, UniProt P43320 1-205, looked up)
chain: MASDHQTQAGKPQSLNPKIIIFEQENFQGHSHELNGPCPNLKETGVEKAGSVLVQAGPWVGYEQANCKGEQFVFEKGEYPRWDSWTSSRRTDSLSSLRPIKVDSQEHKIILYENPNFTGKKMEIIDDDVPSFHAHGYQEKVSSVRVQSGTWVGYQYPGYRGLQYLLEKGDYKDSSDFGAPHPQVQSVRRIRDMQWHQRGAFHPSN
As for B1, in series [2], the “stoichiometry N” value is 2.
